Measurements reported in patent US20240192215A1 (E AND S HEALTHCARE, published 2024).

T1: human thioredoxin-1 (Trx1) (human, UniProt P10599 1-105)
T1 construct: also called hTrx1; hTRX1
T1 sequence (looked up): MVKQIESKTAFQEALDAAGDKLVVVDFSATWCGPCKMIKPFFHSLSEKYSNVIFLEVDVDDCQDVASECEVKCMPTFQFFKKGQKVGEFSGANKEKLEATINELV

T2: Peptide_046 (human)
T2 construct: 15-mer of hTrx1 on microarray
T2 peptide: ATWCGPCKMIKPFFH

T3: Peptide_047 (human)
T3 construct: 15-mer of hTrx1 on microarray
T3 peptide: TWCGPCKMIKPFFHS

T4: Peptide_048 (human)
T4 construct: 15-mer of hTrx1 on microarray
T4 peptide: WCGPCKMIKPFFHSL

T5: Peptide_049 (human)
T5 construct: 15-mer of hTrx1 on microarray
T5 peptide: CGPCKMIKPFFHSLS

T6: Peptide_050 (human)
T6 construct: 15-mer of hTrx1 on microarray
T6 peptide: GPCKMIKPFFHSLSE

T7: Peptide_052 (human)
T7 construct: 15-mer of hTrx1 on microarray
T7 peptide: CKMIKPFFHSLSEKY

T8: Peptide_053 (human)
T8 construct: 15-mer of hTrx1 on microarray
T8 peptide: KMIKPFFHSLSEKYS

T9: Peptide_054 (human)
T9 construct: 15-mer of hTrx1 on microarray
T9 peptide: MIKPFFHSLSEKYSN

T10: Peptide_055 (human)
T10 construct: 15-mer of hTrx1 on microarray
T10 peptide: IKPFFHSLSEKYSNV

T11: Peptide_056 (human)
T11 construct: 15-mer of hTrx1 on microarray
T11 peptide: KPFFHSLSEKYSNVI

T12: Peptide_057 (human)
T12 construct: 15-mer of hTrx1 on microarray
T12 peptide: PFFHSLSEKYSNVIF

B1: monoclonal antibody B264 (antibody, mouse IgG1, kappa, V domains shown)
VH: QVQLQQSGAELARPGASVKMSCKASGYTFTSYTMHWVKQRPGQGLEWIGYINPTSDYTNYNQKFKDKATLTADKSSSTAYMQLSSLTSEDSAVYFCASEGGFLYYFDYWGQGTTLTVSS
VL: DVLMTQTPLSLPVSLGDQASISCRSSQSIVHSNGNTYLEWYLQKPGQSPKLLIYKVSNRFSGVPDRFSGSGSGTDFTLKISRVEAEDLGVYYCFQGSHVPYTFGGGTKLEIKR
notes: also called AB264; B264 (Trx1-mIgG1)
B2: monoclonal antibody B266-1 (antibody, human IgG1)
light: QIVLTQSPAIMSASPGEKVTMTCSASSRISYMYWYQQKPGTSPKRWIYDTSKLASGVPARFSGSGSGTSYSLTISTMEAEDAATYYCHQRSSYPTFGAGTKLELKSVAAPSVFIFPPSDEQLKSGTASVVCLLNNFYPREAKVQWKVDNALQSGNSQESVTEQDSKDSTYSLSSTLTLSKADYEKHKVYACEVTHQGLSSPVTKSFNRGEC
heavy: not shown
notes: B266 with the Fc part changed to human IgG1; also called B266-1 (Trx1-hIgG1); B266-1 (hTrx1-hIgG1)

Legend:
[1] = target: T1, human thioredoxin-1 (Trx1); assay: ELISA on 200 ng coated hTrx1
Experimental: A reaction solution was removed, followed by washing five times with 200 μL of 1×PBST. […] A reaction solution was removed, and washed five times with 200 μL of 1×PBST. 100 μL of a color reagent was dispensed into each well, and after a 10-minute reaction, 50 μL of 2.5M H₂SO₄ was dispensed into each well. After color development, the extent of the color development was assessed using an ELISA reader.

Peptide_046 [2] = target: T2, Peptide_046; assay: peptide microarray, 0.2 ug/mL
Experimental: (§1) 5, 1, 0.2, 0.04, 0.008 and 0.0016 μg/mL serial dilutions were incubated on a single multi-well microarray slide at 30° C. for 1 hour. The slide includes 21 individual mini-arrays (one mini-array per sample dilution).
(§2) DyLight 650 was used as a label. False-positive binding to a peptide was evaluated by performing one additional control incubation in which only a secondary antibody was applied on the same microarray slide. Before performing each step, the microarrays were washed with a washing buffer.

Peptide_047 [3] = target: T3, Peptide_047; assay: peptide microarray, 0.2 ug/mL
Experimental: as §1, §2

Peptide_048 [4] = target: T4, Peptide_048; assay: peptide microarray, 0.2 ug/mL
Experimental: as §1, §2

Peptide_049 [5] = target: T5, Peptide_049; assay: peptide microarray, 0.2 ug/mL
Experimental: as §1, §2

Peptide_050 [6] = target: T6, Peptide_050; assay: peptide microarray, 0.2 ug/mL
Experimental: as §1, §2

Peptide_052 [7] = target: T7, Peptide_052; assay: peptide microarray, 0.2 ug/mL
Experimental: as §1, §2

Peptide_053 [8] = target: T8, Peptide_053; assay: peptide microarray, 0.2 ug/mL
Experimental: as §1, §2

Peptide_054 [9] = target: T9, Peptide_054; assay: peptide microarray, 0.2 ug/mL
Experimental: as §1, §2

Peptide_055 [10] = target: T10, Peptide_055; assay: peptide microarray, 0.2 ug/mL
Experimental: as §1, §2

Peptide_056 [11] = target: T11, Peptide_056; assay: peptide microarray, 0.2 ug/mL
Experimental: as §1, §2

Peptide_057 [12] = target: T12, Peptide_057; assay: peptide microarray, 0.2 ug/mL
Experimental: as §1, §2

Peptide_046 [13] = target: T2, Peptide_046; assay: peptide microarray, 0.04 ug/mL
Experimental: as §1, §2

Peptide_047 [14] = target: T3, Peptide_047; assay: peptide microarray, 0.04 ug/mL
Experimental: as §1, §2

Peptide_048 [15] = target: T4, Peptide_048; assay: peptide microarray, 0.04 ug/mL
Experimental: as §1, §2

Peptide_049 [16] = target: T5, Peptide_049; assay: peptide microarray, 0.04 ug/mL
Experimental: as §1, §2

Peptide_050 [17] = target: T6, Peptide_050; assay: peptide microarray, 0.04 ug/mL
Experimental: as §1, §2

Peptide_052 [18] = target: T7, Peptide_052; assay: peptide microarray, 0.04 ug/mL
Experimental: as §1, §2

Peptide_053 [19] = target: T8, Peptide_053; assay: peptide microarray, 0.04 ug/mL
Experimental: as §1, §2

Peptide_054 [20] = target: T9, Peptide_054; assay: peptide microarray, 0.04 ug/mL
Experimental: as §1, §2

Peptide_055 [21] = target: T10, Peptide_055; assay: peptide microarray, 0.04 ug/mL
Experimental: as §1, §2

Peptide_056 [22] = target: T11, Peptide_056; assay: peptide microarray, 0.04 ug/mL
Experimental: as §1, §2

Peptide_057 [23] = target: T12, Peptide_057; assay: peptide microarray, 0.04 ug/mL
Experimental: as §1, §2

Peptide_046 [24] = target: T2, Peptide_046; assay: peptide microarray, head 0.08 ug (text 0.008 ug/mL)
Experimental: as §1, §2

Peptide_047 [25] = target: T3, Peptide_047; assay: as above
Experimental: as §1, §2

Peptide_048 [26] = target: T4, Peptide_048; assay: as above
Experimental: as §1, §2

Peptide_049 [27] = target: T5, Peptide_049; assay: as above
Experimental: as §1, §2

Peptide_050 [28] = target: T6, Peptide_050; assay: as above
Experimental: as §1, §2

Peptide_052 [29] = target: T7, Peptide_052; assay: as above
Experimental: as §1, §2

Peptide_053 [30] = target: T8, Peptide_053; assay: as above
Experimental: as §1, §2

Peptide_054 [31] = target: T9, Peptide_054; assay: as above
Experimental: as §1, §2

Peptide_055 [32] = target: T10, Peptide_055; assay: as above
Experimental: as §1, §2

Peptide_056 [33] = target: T11, Peptide_056; assay: as above
Experimental: as §1, §2

Peptide_057 [34] = target: T12, Peptide_057; assay: as above
Experimental: as §1, §2

| Binder | Kd [1] | signal (blank-control = 1) (Peptide_046 [2]) | signal (blank-control = 1) (Peptide_047 [3]) | signal (blank-control = 1) (Peptide_048 [4]) | signal (blank-control = 1) (Peptide_049 [5]) | signal (blank-control = 1) (Peptide_050 [6]) | signal (blank-control = 1) (Peptide_052 [7]) | signal (blank-control = 1) (Peptide_053 [8]) | signal (blank-control = 1) (Peptide_054 [9]) | signal (blank-control = 1) (Peptide_055 [10]) | signal (blank-control = 1) (Peptide_056 [11]) | signal (blank-control = 1) (Peptide_057 [12]) | signal (blank-control = 1) (Peptide_046 [13]) | signal (blank-control = 1) (Peptide_047 [14]) | signal (blank-control = 1) (Peptide_048 [15]) | signal (blank-control = 1) (Peptide_049 [16]) | signal (blank-control = 1) (Peptide_050 [17]) | signal (blank-control = 1) (Peptide_052 [18]) | signal (blank-control = 1) (Peptide_053 [19]) | signal (blank-control = 1) (Peptide_054 [20]) | further results |
| --- | --- | --- | --- | --- | --- | --- | --- | --- | --- | --- | --- | --- | --- | --- | --- | --- | --- | --- | --- | --- | --- |
| B1 | 0.17 nM | 3.44 | 2.52 | 4.61 | 1.34 | 0.46 | 2.56 | 4.75 | 0.89 | 2.21 | 1.72 | 2.08 | 2.87 | 1.97 | 6.34 | 1.48 | 0.64 | 2.02 | 2.54 | 0.99 | reaction value (OD 490) relative to B266-1 [1]: ~50%; signal (blank-control = 1) (Peptide_055 [21]): 1.51; signal (blank-control = 1) (Peptide_056 [22]): 1.35; signal (blank-control = 1) (Peptide_057 [23]): 2.15; signal (blank-control = 1) (Peptide_046 [24]): 2.11; signal (blank-control = 1) (Peptide_047 [25]): 1.52; signal (blank-control = 1) (Peptide_048 [26]): 7.68; signal (blank-control = 1) (Peptide_049 [27]): 1.43; signal (blank-control = 1) (Peptide_050 [28]): 0.65; signal (blank-control = 1) (Peptide_052 [29]): 1.23; signal (blank-control = 1) (Peptide_053 [30]): 1.76; signal (blank-control = 1) (Peptide_054 [31]): 0.63; signal (blank-control = 1) (Peptide_055 [32]): 0.99; signal (blank-control = 1) (Peptide_056 [33]): 1.11; signal (blank-control = 1) (Peptide_057 [34]): 2.27 |
| B2 | 0.21 nM | 2 | 1.58 | 5.99 | 1.45 | 0.65 | 1.38 | 1.66 | 0.84 | 1.04 | 1.24 | 1.94 | 1.96 | 1.5 | 6.57 | 1.51 | 0.68 | 1.23 | 1.35 | 0.71 | signal (blank-control = 1) (Peptide_055 [21]): 1.41; signal (blank-control = 1) (Peptide_056 [22]): 1.11; signal (blank-control = 1) (Peptide_057 [23]): 1.87; signal (blank-control = 1) (Peptide_046 [24]): 1.64; signal (blank-control = 1) (Peptide_047 [25]): 1.11; signal (blank-control = 1) (Peptide_048 [26]): 7.25; signal (blank-control = 1) (Peptide_049 [27]): 1.31; signal (blank-control = 1) (Peptide_050 [28]): 0.52; signal (blank-control = 1) (Peptide_052 [29]): 1.12; signal (blank-control = 1) (Peptide_053 [30]): 1.44; signal (blank-control = 1) (Peptide_054 [31]): 0.71; signal (blank-control = 1) (Peptide_055 [32]): 0.85; signal (blank-control = 1) (Peptide_056 [33]): 1.07; signal (blank-control = 1) (Peptide_057 [34]): 2.09 |
